# Laboratory results taken from the RNAGym collection of RNA variant scans (doi:10.7554/elife.90254).
# B1: LINE1-full (parent)
# chain: UACGUAGGUGGUUUUCCCCUGAUAGUGCUAAGGGGGCCUGGAAGUUUGGACUGGGCAGAGCUCAACACAGCGUGGCAAAGUGGCUGUGGCUAGACUGCCUCUCUGGAUUCCUCGUCACUCAGCAGGGCAUCUCUGAGAGAAAUGCC
# Variants of: B1
# Assay: self-cleavage, relative activity (ratio to wild type); higher = more cleavage; in vitro, sequencing; the parent is a self-cleaving ribozyme
row,Variant,self-cleavage
1,A24U U39A,0.84
2,A24U U46A,0.91
3,A24U U47C,1.57
4,A24U U62A,0.03
5,A24U U87A,0.11
6,A24U U102C,1.09
7,A24U U119G,2.22
8,A24U U132A,1.59
9,A24U U132C,1.07
10,A24U U143A,1.13
11,G25A A42G,1.38
12,G25A A43G,1.27
13,G25A A59G,0.09
14,G25A A64G,0.27
15,G25A A64U,0.4
16,G25A A67G,0.5
17,G25A A78G,1.2
18,G25A A92U,0.25
19,G25A A94G,0.21
20,G25A A107G,0.88
21,G25A A117U,1.25
22,G25A A124G,0.63
23,G25A A136G,1.58
24,G25A A142C,2.3

row,Variant,self-cleavage
1,G25A A142U,0.93
2,G25A C99G,0.06
3,G25A G27A,1.03
4,G25A G35A,0.91
5,G25A G44A,1.16
6,G25A G54C,1.02
7,G25A U39A,1.15
8,G25A U46A,1.42
9,G25A U47C,0.54
10,G25A U85A,0.08
11,G25A U91C,0
12,G25A U104A,1.03
13,G25A U108C,1.24
14,G25A U109A,1.72
15,G25A U130C,0.8
16,G25A U143A,1.12
17,G25C U85C,0.2
18,G25C U91C,0.97
19,G25C U102C,1.31
20,G25C U119C,1.58
21,G25U A43C,1.32
22,G25U A65G,0.01
23,G25U G49U,1.21
24,G25U U39C,0.47

row,Variant,self-cleavage
1,G25U U104A,0.77
2,G25U U119A,1.69
3,G25U U119C,1.74
4,U26A A30U,1.56
5,U26A A31U,1.43
6,U26A A42G,1.02
7,U26A A42U,1.03
8,U26A A50G,0.92
9,U26A A57C,0.02
10,U26A A59U,0.65
11,U26A A65G,0.16
12,U26A A65U,0.14
13,U26A A67U,0.03
14,U26A A69G,0.29
15,U26A A69U,0.08
16,U26A A77C,0
17,U26A A77U,0.78
18,U26A A92G,0.05
19,U26A A94G,0.24
20,U26A A107G,1.06
21,U26A A107U,1.09
22,U26A A117U,0.98
23,U26A A129U,1.06
24,U26A A136G,1.57

row,Variant,self-cleavage
1,U26A A141U,0.61
2,U26A C28U,0.99
3,U26A C63U,0.37
4,U26A C84U,0.02
5,U26A C90U,0.04
6,U26A C113U,0.86
7,U26A C145A,1.07
8,U26A G32A,0.44
9,U26A G35A,0.67
10,U26A G35U,1.14
11,U26A G36C,0.41
12,U26A G44A,1
13,U26A G53A,1.44
14,U26A G55A,0.25
15,U26A G70A,0.11
16,U26A G72A,0.94
17,U26A G82U,0.93
18,U26A G93A,0
19,U26A G122A,0.72
20,U26A G126A,0.82
21,U26A G127U,1.16
22,U26A G137A,1.53
23,U26A U39A,0.99
24,U26A U45A,0.84

row,Variant,self-cleavage
1,U26A U45C,1.37
2,U26A U46C,1.45
3,U26A U52C,0.8
4,U26A U62A,0.05
5,U26A U62C,0.04
6,U26A U81A,1.29
7,U26A U81C,0.74
8,U26A U87C,0.15
9,U26A U87G,0.13
10,U26A U91A,0.44
11,U26A U96A,0.09
12,U26A U96C,0.16
13,U26A U102C,1.13
14,U26A U104C,1.28
15,U26A U108C,1.13
16,U26A U109C,0.95
17,U26A U112A,0.9
18,U26A U112C,1.18
19,U26A U115A,1.07
20,U26A U119C,0.97
21,U26A U130C,1.24
22,U26A U132C,1.15
23,U26A U134A,1.23
24,U26C A31U,1.05

row,Variant,self-cleavage
1,U26C A43U,1.21
2,U26C A50G,1.14
3,U26C A59C,1.37
4,U26C A59G,0.08
5,U26C A64U,0.61
6,U26C A65G,0.13
7,U26C A65U,0.14
8,U26C A67G,1.16
9,U26C A69G,0.46
10,U26C A69U,0.11
11,U26C A77C,1.61
12,U26C A77G,1.93
13,U26C A79G,1.01
14,U26C A79U,0.68
15,U26C A92G,0.04
16,U26C A107G,1.33
17,U26C A121G,1.64
18,U26C A121U,1.43
19,U26C A124U,1.25
20,U26C A129U,1.24
21,U26C A136G,1.42
22,U26C A138C,1.28
23,U26C A138G,1.78
24,U26C A138U,1.57

row,Variant,self-cleavage
1,U26C A140C,1.19
2,U26C A140G,1.19
3,U26C A141G,1.27
4,U26C C28U,1.15
5,U26C C38U,1.29
6,U26C C71U,0.9
7,U26C C95U,0.24
8,U26C C101U,1.46
9,U26C C111A,1.04
10,U26C C116U,1.48
11,U26C C118U,1.05
12,U26C C120U,1.17
13,U26C C123U,1.06
14,U26C C131A,0.78
15,U26C C131G,2.07
16,U26C C146U,1.68
17,U26C G32A,1.03
18,U26C G32C,0.94
19,U26C G33A,0.7
20,U26C G33U,1.01
21,U26C G35C,2.65
22,U26C G35U,1.56
23,U26C G44A,1.17
